These results are taken from patent US20100240066A1 (MCGILL UNIVERSITY, published 2010).

Where no end group is shown, it is not given here.

Assay [1] addresses T1, N-cadherin/Fc chimeric protein (human, UniProt P19022 160-724).
T1 construct: range 160-724; Bought from R&D Systems; also called N-cad/Fc; human N-cadherin/Fc chimeric protein; not shown: Fc region of human IgG1
T1 sequence (looked up): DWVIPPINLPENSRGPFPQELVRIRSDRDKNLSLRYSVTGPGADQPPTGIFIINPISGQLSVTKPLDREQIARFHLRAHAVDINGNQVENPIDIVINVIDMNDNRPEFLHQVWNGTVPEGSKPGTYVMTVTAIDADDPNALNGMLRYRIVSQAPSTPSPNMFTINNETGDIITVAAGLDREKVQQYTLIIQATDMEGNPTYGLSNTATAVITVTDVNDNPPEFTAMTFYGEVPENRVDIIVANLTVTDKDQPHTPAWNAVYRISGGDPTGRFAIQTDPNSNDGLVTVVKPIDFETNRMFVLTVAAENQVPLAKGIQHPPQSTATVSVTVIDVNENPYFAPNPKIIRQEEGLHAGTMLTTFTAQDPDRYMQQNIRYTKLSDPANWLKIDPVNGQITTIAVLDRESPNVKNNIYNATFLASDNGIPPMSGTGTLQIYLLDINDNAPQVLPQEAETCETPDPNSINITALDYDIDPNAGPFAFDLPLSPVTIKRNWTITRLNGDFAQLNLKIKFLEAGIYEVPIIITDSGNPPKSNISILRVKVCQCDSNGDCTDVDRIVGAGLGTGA
Briefly: phage ELISA, 1.2 mM calcium. Here is the method: The binding of each clone to the cadherin/Fc chimeric proteins was confirmed by ELISA. Wells of ProBind microtiter plates (Falcon) were coated with either N-cadherin/Fc or E-cadherin/Fc chimeric protein (100 ng/well) or human IgG1 (which contains the Fc fragment) (100 ng/well). After blocking the nonspecific sites with TBS containing 3% BSA and 1.2 mM CaCl₂ for 1 h at 37° C., phage clones (10⁹ pfu) diluted in TBST containing 3% BSA and 1.2 mM CaCl₂ (100 μl/well). Non-coated wells were also used to exclude any phage that bound to the plastic surface. After 1 h incubation at room temperature, wells were washed 3 times with TBST containing 3% BSA and 1.2 mM CaCl₂. M13 phage without any insert were used to control the non-specific binding of the phage itself to the target. Monoclonal anti-M13 antibody conjugated to horseradish peroxidase (Amersham Biosciences, Piscataway, N.J.) was diluted in TBST containing 3% BSA and 1.2 mM CaCl₂ (1:2,000) and added to each well (100 μl/well). After 1 h incubation at room temperature, wells were washed three times with TBST containing 3% BSA and 1.2 mM CaCl₂ and once with TBS containing 1.2 mM CaCl₂. Horseradish peroxidase substrate, TMB (Sigma), was added to each well (100 μl/well and after color development the reaction was stopped by addition of 100 μl 0.5 M sulphuric acid to each well. The intensity of the color was measured at 450 nm.
An ELISA was performed in the presence of either 1.2 mM calcium or 2 mM EDTA. […] The signal obtained in the presence of EDTA was lower than in the presence of calcium.
(In an ELISA, binding on a coated surface is turned into a signal by an enzyme label.)

The target of assay [2] is T2, VE-cadherin/Fc chimeric protein (UniProt P33151 48-593).
T2 construct: Bought from R&D Systems; also called vascular endothelial (VE)-cadherin/Fc chimeric protein; not shown: Fc part not described
T2 sequence (looked up): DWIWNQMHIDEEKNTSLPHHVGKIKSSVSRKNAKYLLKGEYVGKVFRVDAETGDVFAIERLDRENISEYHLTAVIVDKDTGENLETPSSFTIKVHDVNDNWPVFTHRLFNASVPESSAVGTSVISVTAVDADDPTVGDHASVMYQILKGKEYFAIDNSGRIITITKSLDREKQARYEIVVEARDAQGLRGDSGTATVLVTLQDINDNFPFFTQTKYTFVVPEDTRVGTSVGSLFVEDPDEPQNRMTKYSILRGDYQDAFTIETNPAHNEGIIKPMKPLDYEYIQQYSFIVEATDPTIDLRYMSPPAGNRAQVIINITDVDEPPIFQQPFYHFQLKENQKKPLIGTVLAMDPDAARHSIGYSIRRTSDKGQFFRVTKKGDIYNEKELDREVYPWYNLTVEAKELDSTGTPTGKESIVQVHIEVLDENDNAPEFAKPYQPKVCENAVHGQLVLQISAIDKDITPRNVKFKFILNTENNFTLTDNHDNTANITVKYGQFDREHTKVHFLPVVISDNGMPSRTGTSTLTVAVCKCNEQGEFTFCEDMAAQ
Nature of the assay: phage ELISA. As to the method:
(§1) The phage clones shown to bind to the N-cadherin/Fc chimeric protein by ELISA were also evaluated for their ability to bind to E-cadherin/Fc and VE-cadherin/Fc chimeric proteins. The phage clones shown to bind to the E-cadherin/Fc chimeric protein by ELISA were also evaluated for their ability to bind to N-cadherin/Fc and VE-cadherin/Fc chimeric proteins. The same ELISA protocol described in the previous section was used to perform this evaluation with the exception that the wells were coated with either 100 ng N-cadherin/Fc, E-cadherin/Fc or VE-cadherin/Fc chimeric protein (R&D Systems, Minneapolis, Minn.).

Assay [3] has as its target T3, E-cadherin/Fc chimeric protein (human, UniProt P12830 155-707).
T3 construct: range 155-707; Bought from R&D Systems; also called E-cad/Fc; human E-cadherin/Fc chimeric protein; not shown: Fc region of human IgG1
T3 sequence (looked up): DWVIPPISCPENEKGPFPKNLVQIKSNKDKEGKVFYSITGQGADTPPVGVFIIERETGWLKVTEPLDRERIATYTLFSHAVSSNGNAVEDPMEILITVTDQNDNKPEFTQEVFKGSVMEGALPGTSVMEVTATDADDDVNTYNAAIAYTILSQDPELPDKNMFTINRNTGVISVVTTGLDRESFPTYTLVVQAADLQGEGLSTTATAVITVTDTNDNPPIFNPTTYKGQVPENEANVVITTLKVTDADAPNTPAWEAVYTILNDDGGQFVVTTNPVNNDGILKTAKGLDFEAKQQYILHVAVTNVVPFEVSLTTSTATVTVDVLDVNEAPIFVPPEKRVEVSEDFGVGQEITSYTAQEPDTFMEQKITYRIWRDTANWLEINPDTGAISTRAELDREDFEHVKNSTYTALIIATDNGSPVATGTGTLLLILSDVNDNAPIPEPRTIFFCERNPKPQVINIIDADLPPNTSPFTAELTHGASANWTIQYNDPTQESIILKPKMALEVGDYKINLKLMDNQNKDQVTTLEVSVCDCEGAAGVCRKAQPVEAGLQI
Briefly: phage ELISA. Here is the method:
as §1

In assay [4] the target is T3, E-cadherin/Fc chimeric protein. Nature of the assay: summary table, column Peptide Binds to E-cad/Fc; assay not named.
Assay [5] concerns the target T1, N-cadherin/Fc chimeric protein. Nature of the assay: summary table, column Peptide Binds to N-cad/Fc; assay not named.
The target of assay [6] is T2, VE-cadherin/Fc chimeric protein. Nature of the assay: surface plasmon resonance (Biacore), chimera captured by anti-human IgG. As to the method:
The binding of representative peptide modulating agents to either N- or VE-cadherin/Fc chimeric proteins was assessed using a BIAcore X™ Biosensor (Pharmacia Ltd., Sweden). Goat anti-human IgG recognizing N- and VE-cadherin/Fc chimeric proteins (R&D Systems, Minneapolis, Minn.) was immobilized on a CM5 sensor chip (Biacore S51) using standard amine-coupling method at 25° C. HBS-P buffer (10 mM HEPES, 0.15 M NaCl, 0.005% p20, pH 7.4) was used as the running buffer. The carboxymethyl dextran surface was activated with a 7 min injection of a 1:1 ratio of 0.4 M EDC and 0.1 M NHS. The goat anti-human IgG (Caltag Lab.) was coupled to the surface with a 7 min injection diluted in 10 mM sodium acetate, pH 5.0 to a final concentration 80 ug/ml. Remaining activated groups were blocked with a 7 min injection of 1 M ethanolamine, pH 8.5. N- and VE-cadherin/Fc chimeric proteins were dissolved in buffer containing 50 mM Tris HCl, 150 mM NaCl, and 1.2 mM CaCl₂ pH 7.5 to a concentration of 0.2 μM and captured on spots 1 and 2 at a flow rate of 30 μl/min for 30 min with resulting density 927 RU for N-cadherin/Fc chimeric protein and 1008 RU for VE-cadherin/Fc chimeric protein. […]
(§2) The binding of the linear peptide H-[…]-NH₂ (SEQ ID NO: 16) to N- and VE-cadherin/Fc chimeric proteins was analyzed by surface plasma resonance.
A general note: In SPR one partner is held on a chip, and binding of the other changes the refractive index at the surface.

The target of assay [7] is T1, N-cadherin/Fc chimeric protein. Briefly: surface plasmon resonance (Biacore), N-cadherin/Fc captured by anti-human IgG, peptide as analyte, 1.2 mM CaCl2, 25 C. Here is the method: The binding of representative peptide modulating agents to either N- or VE-cadherin/Fc chimeric proteins was assessed using a BIAcore X™ Biosensor (Pharmacia Ltd., Sweden). Goat anti-human IgG recognizing N- and VE-cadherin/Fc chimeric proteins (R&D Systems, Minneapolis, Minn.) was immobilized on a CM5 sensor chip (Biacore S51) using standard amine-coupling method at 25° C. HBS-P buffer (10 mM HEPES, 0.15 M NaCl, 0.005% p20, pH 7.4) was used as the running buffer. The carboxymethyl dextran surface was activated with a 7 min injection of a 1:1 ratio of 0.4 M EDC and 0.1 M NHS. The goat anti-human IgG (Caltag Lab.) was coupled to the surface with a 7 min injection diluted in 10 mM sodium acetate, pH 5.0 to a final concentration 80 ug/ml. Remaining activated groups were blocked with a 7 min injection of 1 M ethanolamine, pH 8.5. N- and VE-cadherin/Fc chimeric proteins were dissolved in buffer containing 50 mM Tris HCl, 150 mM NaCl, and 1.2 mM CaCl₂ pH 7.5 to a concentration of 0.2 μM and captured on spots 1 and 2 at a flow rate of 30 μl/min for 30 min with resulting density 927 RU for N-cadherin/Fc chimeric protein and 1008 RU for VE-cadherin/Fc chimeric protein.
The linear peptide H-[…]-NH₂ (SEQ ID NO: 16) and the control linear peptide H-[…]-NH₂ (SEQ ID NO: 58) were passed over surfaces coated with captured N- and VE-cadherin/Fc chimeric proteins in running buffer containing 50 mM Tris-HCl, 150 mM NaCl, and 1.2 mM CaCl₂, pH 7.5 at concentrations ranging from 100-1.56 uM. The experiment was performed at a flow rate 90 ul/min at 25° C. […] All responses were referenced for reference surface and blank injections of running buffer.
as §2

Take KWELTYFANSFP (whole phage in the assay) [phage clone Nc 12-a3]: the binding result in assay [1] was “binds”; in assay [2], “no binding (tested: 10^9 pfu)”; in assay [3], “no binding (tested: 10^9 pfu)”.

Regarding H-HWYITTGPVREK-NH2 (Synthetic linear peptide) [H-HWYITTGPVREK-NH2], the binding result in assay [4] was “no binding”; in assay [5], “binds”.

Consider NWFIDFPVYPPL (whole phage in the assay) [phage clone Nc 12-a1], for which the binding result in assay [1] is “binds”; in assay [2], “no binding (tested: 10^9 pfu)”; in assay [3] it was “no binding (tested: 10^9 pfu)”.

In the case of H-SRTLYTPSGQSK-NH2 [H-SRTLYTPSGQSK-NH2], the binding result is given as “no binding (tested: 100-1.56 uM)” in assay [6] and “no binding” in assay [5].

Turning to H-WELRVSSP-NH2 (Synthetic linear peptide) [H-WELRVSSP-NH2], the binding result in assay [4] is on record as “no binding”; in assay [5], “binds”.

For SWLAVWPATGAS (whole phage in the assay) [phage clone Nc 12-a10], the binding result in assay [1] is listed as “binds”; in assay [2] it was “no binding (tested: 10^9 pfu)”; in assay [3], “binds”.

In the case of H-WYVCVGAH-NH2 (Synthetic linear peptide) [H-WYVCVGAH-NH2], the binding result was “no binding” in assay [4] and “binds” in assay [5].

Take H-EWMIHYDSALTS-NH2 (Synthetic linear peptide) [H-EWMIHYDSALTS-NH2]: the binding result in assay [4] and in assay [5] was “binds” throughout.

As for H-SWELYYPLRANL-NH2 (Synthetic linear peptide) [H-SWELYYPLRANL-NH2], the binding result in assay [4] and in assay [5] was “binds” in each case.

In the case of AWQVHYSYVASS (whole phage in the assay) [phage clone Nc 12-a7], the binding result in assay [1] is on record as “binds”; in assay [2], “no binding (tested: 10^9 pfu)”; in assay [3] it was “binds”.

Turning to HWYITTGPVREK (whole phage in the assay) [phage clone Nc 12-01], the binding result is reported as “binds” in assay [1], “no binding (tested: 10^9 pfu)” in assay [2] and “no binding (tested: 10^9 pfu)” in assay [3].

As to EWMIHYDSALTS (not fully specified, whole phage in the assay) [phage clone Nc 12-a6], the binding result in assay [1] was “binds”; in assay [2], “no binding (tested: 10^9 pfu)”; in assay [3] it was “binds”.

Consider H-SWTLYTPSGQSK-NH2 (Synthetic linear peptide) [H-SWTLYTPSGQSK-NH2], for which, in assay [4], the binding result is on record as “no binding”. Besides, the binding result in assay [6] is listed as “no binding (tested: 100-1.56 uM)”. For the same molecule, in assay [7], the Kd (usually the constant that tells how readily two partners part at equilibrium) was 66 µM; the koff (as a rule, the first-order rate constant of dissociation) came out at 0.407 s⁻¹; the kon – broadly, the rate constant with which the complex forms – came to 6100 M⁻¹ s⁻¹.
